Measured values: paper PMC9482650, “Quantitative fragmentomics allow affinity mapping of interactomes” (Nature Communications, 2022)

T1: FRMPD1, Q5SYB0
T1 sequence (Q5SYB0 52-145, limits assumed, looked up): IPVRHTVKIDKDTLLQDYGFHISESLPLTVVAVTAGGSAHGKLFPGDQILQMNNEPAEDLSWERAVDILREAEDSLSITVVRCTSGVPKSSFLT

T2: NHERF3_1, Q5T2W1
T2 sequence (Q5T2W1 4-100, limits assumed, looked up): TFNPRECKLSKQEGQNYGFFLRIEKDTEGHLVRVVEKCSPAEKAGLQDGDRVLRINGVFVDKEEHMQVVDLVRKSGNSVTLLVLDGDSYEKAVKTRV

T3: DFNB31_1, Q9P202
T3 sequence (Q9P202 135-233, limits assumed, looked up): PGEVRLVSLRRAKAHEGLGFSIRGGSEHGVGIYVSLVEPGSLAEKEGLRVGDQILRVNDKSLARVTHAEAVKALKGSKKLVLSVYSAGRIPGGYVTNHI

T4: NHERF3_3, Q5T2W1
T4 sequence (Q5T2W1 238-333, limits assumed, looked up): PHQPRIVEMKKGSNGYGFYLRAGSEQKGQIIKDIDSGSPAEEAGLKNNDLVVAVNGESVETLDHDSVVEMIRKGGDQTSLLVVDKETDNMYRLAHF

T5: PTPN13_1, Q12923
T5 sequence (Q12923 1088-1188, limits assumed, looked up): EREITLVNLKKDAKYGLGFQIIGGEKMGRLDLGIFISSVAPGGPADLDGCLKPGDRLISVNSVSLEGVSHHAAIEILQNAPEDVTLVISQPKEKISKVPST

T6: LRRC7, Q96NW7
T6 sequence (Q96NW7 1440-1537, limits assumed, looked up): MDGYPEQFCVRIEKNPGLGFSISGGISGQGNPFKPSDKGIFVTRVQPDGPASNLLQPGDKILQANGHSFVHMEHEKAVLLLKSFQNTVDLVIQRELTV

T7: GRIP1_7, Q9Y3R0
T7 sequence (Q9Y3R0 999-1096, limits assumed, looked up): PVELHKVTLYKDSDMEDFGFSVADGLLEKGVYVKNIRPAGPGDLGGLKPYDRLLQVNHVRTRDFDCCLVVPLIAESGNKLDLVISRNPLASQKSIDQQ

T8: APBA2_1, Q99767
T8 sequence (Q99767 563-664, limits assumed, looked up): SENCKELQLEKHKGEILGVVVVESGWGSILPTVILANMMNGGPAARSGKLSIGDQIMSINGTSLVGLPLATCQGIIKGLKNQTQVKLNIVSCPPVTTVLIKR

T9: APBA3_1, O96018
T9 sequence (O96018 389-490, limits assumed, looked up): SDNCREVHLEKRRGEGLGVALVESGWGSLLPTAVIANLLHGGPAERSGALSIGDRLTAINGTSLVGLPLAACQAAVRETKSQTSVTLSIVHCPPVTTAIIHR

T10: NHERF3_4, Q5T2W1
T10 sequence (Q5T2W1 373-468, limits assumed, looked up): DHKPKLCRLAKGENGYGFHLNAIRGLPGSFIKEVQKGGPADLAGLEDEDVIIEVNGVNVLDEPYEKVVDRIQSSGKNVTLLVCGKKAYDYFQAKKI

T11: APBA1_2, Q02410
T11 sequence (Q02410 742-832, limits assumed, looked up): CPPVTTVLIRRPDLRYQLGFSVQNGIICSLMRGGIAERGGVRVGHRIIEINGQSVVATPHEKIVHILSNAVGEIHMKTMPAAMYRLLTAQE

T12: APBA1_1, Q02410
T12 sequence (Q02410 651-752, limits assumed, looked up): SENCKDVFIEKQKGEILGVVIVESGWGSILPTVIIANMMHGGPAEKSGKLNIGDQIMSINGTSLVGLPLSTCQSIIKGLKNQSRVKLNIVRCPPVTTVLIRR


Legend:
Assay in all cases: holdup assay
Set-up in all cases: key: below the threshold = too weak to quantify, mostly under pKd 3.1 to 4
Details in all cases: plain residues with an end cap or a label only (N-terminal biotin on a linker: ado-ado)
[1] = target: DLG2_3, Q15700
[2] = target: GRIP2_7, Q9C0E4
GRIP2_7, Q9C0E4, sequence (Q9C0E4 934-1023): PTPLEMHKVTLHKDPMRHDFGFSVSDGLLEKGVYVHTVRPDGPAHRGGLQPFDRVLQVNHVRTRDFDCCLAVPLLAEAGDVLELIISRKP

[3] = target: T1, FRMPD1, Q5SYB0
[4] = target: IL16_4, Q14005
IL16_4, Q14005, sequence (Q14005 1229-1329): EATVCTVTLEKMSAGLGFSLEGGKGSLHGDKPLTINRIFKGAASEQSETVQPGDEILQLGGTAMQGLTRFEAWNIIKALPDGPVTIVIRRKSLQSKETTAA

[5] = target: DLG1_1, Q12959
[6] = target: GRID2IP_1, A4D2P6
GRID2IP_1, A4D2P6, sequence (A4D2P6 1-87): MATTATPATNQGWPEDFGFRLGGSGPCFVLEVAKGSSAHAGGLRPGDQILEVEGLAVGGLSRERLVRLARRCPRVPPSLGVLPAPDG

[7] = target: HTRA2, O43464
HTRA2, O43464, sequence (O43464 355-458): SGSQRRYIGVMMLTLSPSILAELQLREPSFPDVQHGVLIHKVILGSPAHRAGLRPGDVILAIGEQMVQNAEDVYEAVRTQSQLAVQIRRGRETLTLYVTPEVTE

[8] = target: DLG1_3, Q12959
[9] = target: FRMPD3, Q5JV73
FRMPD3, Q5JV73, sequence (Q5JV73 12-100): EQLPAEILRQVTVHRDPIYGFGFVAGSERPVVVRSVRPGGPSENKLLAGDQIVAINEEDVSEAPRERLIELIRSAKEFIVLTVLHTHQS

[10] = target: T2, NHERF3_1, Q5T2W1
[11] = target: T3, DFNB31_1, Q9P202
[12] = target: T4, NHERF3_3, Q5T2W1
[13] = target: T5, PTPN13_1, Q12923
[14] = target: T6, LRRC7, Q96NW7
[15] = target: MAGI2_3, Q86UL8
MAGI2_3, Q86UL8, sequence (Q86UL8 600-682): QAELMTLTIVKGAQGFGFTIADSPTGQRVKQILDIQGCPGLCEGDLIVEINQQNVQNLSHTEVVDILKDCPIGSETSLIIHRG

[16] = target: Inadl_5, Q8NI35
Inadl_5, Q8NI35, sequence (Q8NI35 673-780): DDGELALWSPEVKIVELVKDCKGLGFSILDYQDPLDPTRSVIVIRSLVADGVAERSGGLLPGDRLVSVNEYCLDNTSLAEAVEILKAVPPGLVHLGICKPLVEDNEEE

[17] = target: T7, GRIP1_7, Q9Y3R0
[18] = target: Inadl_2, Q8NI35
Inadl_2, Q8NI35, sequence (Q8NI35 238-335): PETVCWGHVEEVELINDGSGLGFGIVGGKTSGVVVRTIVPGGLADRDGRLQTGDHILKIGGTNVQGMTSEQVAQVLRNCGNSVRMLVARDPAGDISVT

[19] = target: T8, APBA2_1, Q99767
[20] = target: T9, APBA3_1, O96018
[21] = target: T10, NHERF3_4, Q5T2W1
[22] = target: MAGI2_2, Q86UL8
MAGI2_2, Q86UL8, sequence (Q86UL8 410-522): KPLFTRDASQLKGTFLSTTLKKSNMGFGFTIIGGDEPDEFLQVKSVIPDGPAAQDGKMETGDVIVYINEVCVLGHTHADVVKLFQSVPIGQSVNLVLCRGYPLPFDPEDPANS

[23] = target: FRMPD4, Q14CM0
FRMPD4, Q14CM0, sequence (Q14CM0 67-160): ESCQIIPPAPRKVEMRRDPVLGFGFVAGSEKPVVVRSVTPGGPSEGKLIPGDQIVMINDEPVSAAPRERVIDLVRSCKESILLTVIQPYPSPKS

[24] = target: T11, APBA1_2, Q02410
[25] = target: T12, APBA1_1, Q02410
[26] = target: DLG1_2, Q12959

Binder | pKd [1] | pKd [2] | pKd [3] | pKd [4] | pKd [5] | pKd [6] | pKd [7] | pKd [8] | pKd [9] | pKd [10] | pKd [11] | pKd [12] | pKd [13] | pKd [14] | pKd [15] | pKd [16] | pKd [17] | pKd [18] | pKd [19] | pKd [20] | other results
DTTVPESEDL [MYOZ2, Q9NPC6] | below the threshold | below the threshold | below the threshold | below the threshold | below the threshold | below the threshold | below the threshold | below the threshold | below the threshold | below the threshold | below the threshold | below the threshold | below the threshold | below the threshold | below the threshold | below the threshold | below the threshold | below the threshold | below the threshold | below the threshold | pKd [21]: below the threshold; pKd [22]: below the threshold; pKd [23]: 3.66; pKd [24]: below the threshold; pKd [25]: below the threshold; pKd [26]: below the threshold
PDGQCTVTEV [RNF146, Q9NTX7] | 3.68 | 3.56 | below the threshold | below the threshold | 4.53 | below the threshold | below the threshold | below the threshold | below the threshold | below the threshold | 3.9 | below the threshold | below the threshold | 3.89 | 3.94 | below the threshold | 3.51 | below the threshold | below the threshold | below the threshold | pKd [21]: below the threshold; pKd [22]: 3.86; pKd [23]: below the threshold; pKd [24]: 4.32; pKd [25]: below the threshold; pKd [26]: 5.3
SAKVRTVTSV [RASL11B, Q9BPW5] | 5 | below the threshold | below the threshold | below the threshold | 4.42 | below the threshold | below the threshold | 4.54 | below the threshold | below the threshold | 3.77 | below the threshold | below the threshold | below the threshold | 4.25 | below the threshold | below the threshold | below the threshold | below the threshold | below the threshold | pKd [21]: below the threshold; pKd [22]: 5.92; pKd [23]: below the threshold; pKd [24]: 3.92; pKd [25]: below the threshold; pKd [26]: 5.21
SKSNFGSEPL [KIF17, Q9P2E2] | below the threshold | below the threshold | below the threshold | below the threshold | below the threshold | below the threshold | below the threshold | below the threshold | below the threshold | 3.94 | below the threshold | below the threshold | below the threshold | below the threshold | below the threshold | below the threshold | below the threshold | below the threshold | below the threshold | below the threshold | pKd [21]: below the threshold; pKd [22]: below the threshold; pKd [23]: below the threshold; pKd [24]: below the threshold; pKd [25]: below the threshold; pKd [26]: below the threshold
